# Test results as given in paper PMC5582136.
# Columns and labels:
# [1] = target: fibrillin-1 TB4-cbEGF23 domain pair (residues 1527–1647) (human) (UniProt P35555); experiment: SPR
# [2] = target: fibrillin-1 cbEGF22-TB4 domain pair (residues 1486–1605) (human) (UniProt P35555); experiment: SPR
substance,measurement,setting,value
native αVβ3 integrin purified from human placental extract (from UniProt P05106 27-788) (receptor),koff,[1],0.0016 s⁻¹
same,fold difference in Ka against TB4-cbEGF23,[2],2 fold
